Our source for the Bmax values is patent publication US20240109962A1 (SPARX BIOSCIENCE, published 2024).

The target of assay [1] is T1, human LILRB2 expressed on cells (293T-LILRB2, CHO-K1-LILRB2) (human, UniProt Q8N423 22-597).
T1 construct: whole, on cells; the cell line is named under assay; also called HEK293T-LILRB2
Nature of the assay: flow cytometry, 293T-LILRB2 cells. An excerpt: The fluorescent signals were detected by flow cytometry.

Assay [2] has as its target T2, recombinant human LILRB2 protein (human, UniProt Q8N423 22-460, limits assumed).
T2 construct: also called recombinant LILRB2 protein
Nature of the assay: ELISA, coated recombinant human LILRB2. Details: unit not given here. The protocol:
This affinity maturation library was screened against human LILRB2 to identify antibodies having high binding affinity to LILRB2. Briefly, an ELISA plate was coated with 0.1 ug/well recombinant human LILRB2 protein. Serial diluted maturated h#2E1 antibodies were incubated in the LILRB2 coated plate for 2 hrs. The plate was washed and a secondary HRP-labeled anti-human IgG was then added to each well. After being incubated at room temperature for 1 hour, the colorimetric ELISA signals were developed by adding the TMB substrate and reaction was stopped by 1M H3PO4. Table 7 below provides binding activities of exemplary matured antibodies to recombinant LILRB2 protein.

T2 sequence (Q8N423 22-460 limits assumed): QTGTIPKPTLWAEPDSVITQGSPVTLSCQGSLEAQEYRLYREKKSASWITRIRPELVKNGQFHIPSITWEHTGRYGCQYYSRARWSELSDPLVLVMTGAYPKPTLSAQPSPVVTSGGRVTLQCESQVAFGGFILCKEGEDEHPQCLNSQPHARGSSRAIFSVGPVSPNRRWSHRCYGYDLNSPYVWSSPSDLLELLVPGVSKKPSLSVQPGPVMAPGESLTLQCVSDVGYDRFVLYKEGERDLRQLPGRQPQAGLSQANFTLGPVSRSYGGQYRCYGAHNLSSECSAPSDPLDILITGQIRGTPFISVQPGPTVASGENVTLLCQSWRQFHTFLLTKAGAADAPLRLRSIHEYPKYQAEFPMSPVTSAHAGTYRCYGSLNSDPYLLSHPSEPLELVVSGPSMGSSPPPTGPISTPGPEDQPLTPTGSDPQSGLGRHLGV
T1 sequence (Q8N423 22-597): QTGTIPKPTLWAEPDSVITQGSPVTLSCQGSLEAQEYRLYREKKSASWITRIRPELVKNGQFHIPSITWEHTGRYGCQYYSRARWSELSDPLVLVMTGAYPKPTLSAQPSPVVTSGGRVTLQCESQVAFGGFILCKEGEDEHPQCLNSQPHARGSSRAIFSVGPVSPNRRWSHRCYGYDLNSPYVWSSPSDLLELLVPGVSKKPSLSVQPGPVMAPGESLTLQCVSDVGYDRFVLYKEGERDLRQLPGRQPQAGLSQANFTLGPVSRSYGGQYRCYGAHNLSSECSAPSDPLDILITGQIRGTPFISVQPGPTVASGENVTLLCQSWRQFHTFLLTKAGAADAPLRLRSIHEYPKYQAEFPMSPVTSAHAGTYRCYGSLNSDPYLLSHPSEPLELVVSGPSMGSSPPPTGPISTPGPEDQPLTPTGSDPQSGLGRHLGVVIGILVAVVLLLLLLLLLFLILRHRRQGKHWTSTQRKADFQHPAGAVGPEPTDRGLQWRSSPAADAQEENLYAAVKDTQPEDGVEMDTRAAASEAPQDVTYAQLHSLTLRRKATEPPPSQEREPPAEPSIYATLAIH

B1: Antibody 2E1_FE1 (antibody, V domains shown)
VH: EVQLVESGGGLVQPGGSLRLSCAVSGYSITSGYYWNWIRQAPGKGLEWVAYISYDGNMNYNPSLKNRFTISRDTSKNTFYLQMNSLRAEDTAVYYCAREESTMITTAWFAYWGQGTLVTVSS
VL: DIQMTQSPSSLSASVGDRVTITCRASENIYSNLAWYQQKPGKAPKLLIYGATNLASGVPSRFSGSGSGTDYTLTISSLQPEDFATYYCQHFWDTPYTFGQGTKVEIK
B1: the Bmax in assay [1] came out at 690000.

B2: Antibody 2E1_GH3 (antibody, V domains shown)
VH: EVQLVESGGGLVQPGGSLRLSCAVSGYSITSGYYWNWIRQAPGKGLEWVAYISYDGNNNYNPSLKNRFTISRDTSKNTFYLQMNSLRAEDTAVYYCAREESTMITTAWFAYWGQGTLVTVSS
VL: DIQMTQSPSSLSASVGDRVTITCRASENIYSNLAWYQQKPGKAPKLLIYGATNLSSGVPSRFSGSGSGTDYTLTISSLQPEDFATYYCQHFWDTPYTFGQGTKVEIK
As to B2, the Bmax came out at 641000 in assay [1] and 1.14 in assay [2].

B3: Antibody 2E1_GB8 (antibody, V domains shown)
VH: EVQLVESGGGLVQPGGSLRLSCAVSGYSITSGYYWWWIRQAPGKGLEWVAYISYDGNNNYNPSLKNRFTISRDTSKNTFYLQMNSLRAEDTAVYYCAREESTMITTAWFAYWGQGTLVTVSS
VL: DIQMTQSPSSLSASVGDRVTITCSASENIYSNLAWYQQKPGKAPKLLIYGATNLASGVPSRFSGSGSGTDYTLTISSLQPEDFATYYCQHFWDTPYTFGQGTKVEIK
On to B3, for which the Bmax is 659000 in assay [1] and 1.47 in assay [2].

B4: Antibody 2E1_GA1 (antibody, V domains shown)
VH: EVQLVESGGGLVQPGGSLRLSCAVSGYSITSGYYWWWIRQAPGKGLEWVAYISYDGNNNYNPSLKNRFTISRDTSKNTFYLQMNSLRAEDTAVYYCAREESTMITTAWFAYWGQGTLVTVSS
VL: DIQMTQSPSSLSASVGDRVTITCRASENIYSNLAWYQQKPGKAPKLLIYGATNLASGVPSRFSGSGSGTDYTLTISSLQPEDFATYYCQHFWDTPYTFGQGTKVEIK
As to B4, the Bmax in assay [1] came out at 739000; in assay [2], 1.62.

B5: Antibody 2E1_GH11 (antibody, V domains shown)
VH: EVQLVESGGGLVQPGGSLRLSCAVSGYSITSGYYWWWIRQAPGKGLEWVAYISYDGNNNYNPSLKNRFTISRDTSKNTFYLQMNSLRAEDTAVYYCAREESTMITTAWFAYWGQGTLVTVSS
VL: DIQMTQSPSSLSASVGDRVTITCNASENIYSNLAWYQQKPGKAPKLLIYGATNLASGVPSRFSGSGSGTDYTLTISSLQPEDFATYYCQHFWDTPYTFGQGTKVEIK
Take B5: the Bmax in assay [1] was 743000; in assay [2], 1.58.

B6: Antibody 2E1_GB7 (antibody, V domains shown)
VH: EVQLVESGGGLVQPGGSLRLSCAVSGYSITSGYYWWWIRQAPGKGLEWVAYISYDGNNNYNPSLKNRFTISRDTSKNTFYLQMNSLRAEDTAVYYCAREESTMITTAWFAYWGQGTLVTVSS
VL: DIQMTQSPSSLSASVGDRVTITCLASENIYSNLAWYQQKPGKAPKLLIYGATNLASGVPSRFSGSGSGTDYTLTISSLQPEDFATYYCQHFWDTPYTFGQGTKVEIK
Take B6: the Bmax in assay [1] turned out to be 636000; in assay [2], 1.48.

B7: Antibody 2E1_GC8 (antibody, V domains shown)
VH: EVQLVESGGGLVQPGGSLRLSCAVSGYSITSGYYWWWIRQAPGKGLEWVAYISYDGNNNYNPSLKNRFTISRDTSKNTFYLQMNSLRAEDTAVYYCAREESTMITTAWFAYWGQGTLVTVSS
VL: DIQMTQSPSSLSASVGDRVTITCRASENIYSNQAWYQQKPGKAPKLLIYGATNRASGVPSRFSGSGSGTDYTLTISSLQPEDFATYYCQHFWDTPYTFGQGTKVEIK
For the molecule B7, the figures for the Bmax in assay [1] and in assay [2] were 697000 and 1.44, respectively.

B8: Antibody 2E1_GG1 (antibody, V domains shown)
VH: EVQLVESGGGLVQPGGSLRLSCAVSGYSITSGYAWNWIRQAPGKGLEWVAYISYDGNNNYNPSLKNRFTISRDTSKNTFYLQMNSLRAEDTAVYYCAREESTMITTAWFAYWGQGTLVTVSS
VL: DIQMTQSPSSLSASVGDRVTITCRASENIYSNLAWYQQKPGKAPKLLIYGATNLASGVPSRFSGSGSGTDYTLTISSLQPEDFATYYCQHFWDTPYTFGQGTKVEIK
Consider B8, for which the Bmax turned out to be 688000 in assay [1] and 1.56 in assay [2].

B9: Antibody 2E1_FF3 (antibody, V domains shown)
VH: EVQLVESGGGLVQPGGSLRLSCAVSGYSITSGYYWNWIRQAPGKGLEWVAYISYDGNNSYNPSLKNRFTISRDTSKNTFYLQMNSLRAEDTAVYYCAREESTMITTAWFAYWGQGTLVTVSS
VL: DIQMTQSPSSLSASVGDRVTITCRASENIYSNLAWYQQKPGKAPKLLIYGATNLASGVPSRFSGSGSGTDYTLTISSLQPEDFATYYCQHFWDTPYTFGQGTKVEIK
For B9, the Bmax in assay [1] was determined as 434000; in assay [2], 1.17.

B10: Antibody 2E1_GF8 (antibody, V domains shown)
VH: EVQLVESGGGLVQPGGSLRLSCAVSGYSITSGYYWWWIRQAPGKGLEWVAYISYDGNNNYNPSLKNRFTISRDTSKNTFYLQMNSLRAEDTAVYYCAREESTMITTAWFAYWGQGTLVTVSS
VL: DIQMTQSPSSLSASVGDRVTITCRGSENIYSNLAWYQQKPGKAPKLLIYGATNLASGVPSRFSGSGSGTDYTLTISSLQPEDFATYYCQHFWDTPYTFGQGTKVEIK
Take B10: the values for the Bmax in assay [1] and in assay [2] were 688000 and 1.56, respectively.

B11: Antibody 2E1_GA4 (antibody, V domains shown)
VH: EVQLVESGGGLVQPGGSLRLSCAVSGYSITSGYAWNWIRQAPGKGLEWVAYISYDGNNNYNPSLKNRFTISRDTSKNTFYLQMNSLRAEDTAVYYCAREESTMITTAWFAYWGQGTLVTVSS
VL: DIQMTQSPSSLSASVGDRVTITCVASENIYSNLAWYQQKPGKAPKLLIYGATNLASGVPSRFSGSGSGTDYTLTISSLQPEDFATYYCQHFWDTPYTFGQGTKVEIK
For B11, the figures for the Bmax in assay [1] and in assay [2] were 725000 and 1.61, respectively.

B12: Antibody 2E1_GE6 (antibody, V domains shown)
VH: EVQLVESGGGLVQPGGSLRLSCAVSGYSITSGYYWWWIRQAPGKGLEWVAYISYDGNNNYNPSLKNRFTISRDTSKNTFYLQMNSLRAEDTAVYYCAREESTMITTAWFAYWGQGTLVTVSS
VL: DIQMTQSPSSLSASVGDRVTITCRASENIYSNNAWYQQKPGKAPKLLIYGATYLASGVPSRFSGSGSGTDYTLTISSLQPEDFATYYCQHFWDTPYTFGQGTKVEIK
On to B12, for which the Bmax in assay [1] was determined as 665000; in assay [2] it was 1.65.

B13: Antibody 2E1_GH4 (antibody, V domains shown)
VH: EVQLVESGGGLVQPGGSLRLSCAVSGYSITSGYYWWWIRQAPGKGLEWVAYISYDGNNNYNPSLKNRFTISRDTSKNTFYLQMNSLRAEDTAVYYCAREESTMITTAWFAYWGQGTLVTVSS
VL: DIQMTQSPSSLSASVGDRVTITCRASENIYSNLAWYQQKPGKAPKLLIYGATNFASGVPSRFSGSGSGTDYTLTISSLQPEDFATYYCQHFWDTPYTFGQGTKVEIK
With B13, the Bmax in assay [1] was found to be 646000; in assay [2], 1.51.
